Results: patent US20180318435A1 (UNITED STATES OF AMERICA AS REPRESENTED BY THE SECRETARY …, published 2018)

B1: LMB70: BM306-Fab-LR-GGS immunotoxin (protein, part only; not given: Fab constant domains and toxin part)
VH: EVQLQQSGPELVKPGASVKISCKTSGYTFTEYTINWVKQSHGKSLEWIGDIYPDNYNIRYNQKFKGKATLTVDKSSSTAYMELRSLSSEDSAIYYCANHDFFVFWGQGTLVTVSA
VL: DIQMTQATSSLSASLGDRVTINCRTSQDISNHLNWYQQKPDGTVKLLIYYTSRLQSGVPSRFSGSGSGTDYSLTISNLEQEDIGTYFCHQGNTLPPTFGGGTKLEIK
modifications: Fused to a Pseudomonas exotoxin domain III variant (PE-LR-GGS), which the letters do not carry.
B2: BM306 anti-BCMA monoclonal antibody (antibody, V domains shown)
VH: B1 VH
VL: DIQMTQATSSLSASLGDRVTINCRTSQDISNHLNWYQQKPDGTVKLLIYYTSRLQSGVPSRFSGSGSGTDYSLTISNLEQEDIGTYFCHQGNTLPPTFGGGTKLEIKR
notes: Mouse hybridoma mAb, IgG1 with a kappa light chain
B3: BM24 anti-BCMA monoclonal antibody (antibody, V domains shown)
VH: EVQLQQSGPELVKPGASVKMSCKASGNTLTNYVIHWMKQMPGQGLDWIGYILPYNDLTKYNEKFTGKATLTSDKSSSSAYMELNSLTSEDSAVYYCTRWDWDGFFDPWGQGTTLTVSS
VL: DIVMTQSPLSLPVSLGDQASISCRSTQSLVHSNGNTHLHWYLQRPGQSPKLLIYSVSNRFSEVPDRFSASGSGTDFTLKISRVEAEDLGVYFCSQTSHIPYTFGGGTKLEIKR
notes: as for B2

Legend:
[1] = target: full-length human BCMA (TNFRSF17, CD269) on the cell surface (human) (UniProt Q02223); assay: cell-based or functional assay
[2] = target: BCMA (target of the LMB70 affinity measurement; not named, form not stated) (UniProt Q02223); assay: affinity measurement after the first labeling; method and target not stated
[3] = target: T1, full-length human BCMA (TNFRSF17, CD269) on the cell surface (human, UniProt Q02223 1-184); assay: cell-based or functional assay
T1 sequence (looked up): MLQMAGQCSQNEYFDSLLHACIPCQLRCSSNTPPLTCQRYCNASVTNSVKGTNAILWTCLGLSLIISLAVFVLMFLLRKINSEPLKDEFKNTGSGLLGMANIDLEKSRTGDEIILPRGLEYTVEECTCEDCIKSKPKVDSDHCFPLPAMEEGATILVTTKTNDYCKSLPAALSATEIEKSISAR

[4] = target: T2, BCMA-rFc fusion protein (extracellular domain of human BCMA, residues 1-54, fused to rabbit IgG Fc) (human; rabbit, UniProt Q02223 1-54); assay: bio-layer interferometry (BLITZ), BCMA-rFc immobilized by amine coupling, mAb in solution
T2 construct: range 1-54; also called recombinant BCMA-rFc; not shown: rabbit IgG heavy chain hinge region and Fc region (CH2 and CH3 domains), from vector pFUSE-rFc1 (InvivoGen); limits not
T2 sequence (looked up): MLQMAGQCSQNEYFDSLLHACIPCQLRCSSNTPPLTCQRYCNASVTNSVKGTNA

Row | Binder | IC50 (ng/ml), WST assay, H929 cells [1] [ng/mL] | IC50 (ng/ml), WST assay, JJN-3 cells [1] [ng/mL] | IC50 (ng/ml), WST assay, KMS-18 cells [1] [ng/mL] | IC50 (ng/ml), WST assay, LP-1 cells [1] [ng/mL] | IC50 (ng/ml), WST assay, RPMI-8226 cells [1] [ng/mL] | IC50 (ng/ml), WST assay, U266B cells [1] [ng/mL] | IC50, WST assay, H929 cells [1] [ng/mL] | Bmax [2] | IC50 (ng/ml), WST assay, H929 cells [3] [ng/mL] | IC50 (ng/ml), WST assay, JJN-3 cells [3] [ng/mL] | IC50 (ng/ml), WST assay, RPMI-8226 cells [3] [ng/mL] | IC50 (ng/ml), WST assay, U266B cells [3] [ng/mL] | Kd [4] [pM] | koff [4] [s⁻¹] | kon [4] [M⁻¹ s⁻¹]
1 | B1 | 1.1 | 4 | 65 | 20 | 5.1 | 5 | 1 to 1.5 | 2220 |  |  |  |  |  |  | 
2 | B2 |  |  |  |  |  |  |  |  | > 1000 | > 1000 | > 1000 | > 1000 | < 1 | < 1e-07 | 415000
3 | B3 |  |  |  |  |  |  |  |  |  |  |  |  | < 1 | < 1e-07 | 297000
